Assay results taken from patent publication US20130115166A1 (CEPHALON AUSTRALIA, published 2013).

T1: Human IL-23 (human, UniProt P29460 23-328; Q9NPF7 20-189)
T1 construct: Heterodimer of IL-12p40 covalently linked to IL-23p19, purchased (Ebiosciences or RnD Systems); Biotinylated hIL-23 was used in the IL-23R assay; also called hIL-23; rhIL23
T1 sequence 1: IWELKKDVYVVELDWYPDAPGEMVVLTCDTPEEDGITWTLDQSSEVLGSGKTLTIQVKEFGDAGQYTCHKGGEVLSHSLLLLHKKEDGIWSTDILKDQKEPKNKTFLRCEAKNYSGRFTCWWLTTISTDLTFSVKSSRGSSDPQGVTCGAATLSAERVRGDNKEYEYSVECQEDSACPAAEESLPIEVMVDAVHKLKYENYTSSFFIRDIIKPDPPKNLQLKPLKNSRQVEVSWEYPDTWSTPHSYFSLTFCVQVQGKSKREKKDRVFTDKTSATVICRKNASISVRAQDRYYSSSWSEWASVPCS
T1 sequence 2: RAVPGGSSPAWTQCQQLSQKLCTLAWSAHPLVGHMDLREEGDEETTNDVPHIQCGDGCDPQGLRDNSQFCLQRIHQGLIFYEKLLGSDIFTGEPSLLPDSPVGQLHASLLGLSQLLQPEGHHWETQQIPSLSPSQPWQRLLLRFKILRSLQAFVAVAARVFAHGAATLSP

T2: IL-23 (HEK293E-derived) (human, UniProt P29460 23-328; Q9NPF7 20-189)
T2 sequence 1: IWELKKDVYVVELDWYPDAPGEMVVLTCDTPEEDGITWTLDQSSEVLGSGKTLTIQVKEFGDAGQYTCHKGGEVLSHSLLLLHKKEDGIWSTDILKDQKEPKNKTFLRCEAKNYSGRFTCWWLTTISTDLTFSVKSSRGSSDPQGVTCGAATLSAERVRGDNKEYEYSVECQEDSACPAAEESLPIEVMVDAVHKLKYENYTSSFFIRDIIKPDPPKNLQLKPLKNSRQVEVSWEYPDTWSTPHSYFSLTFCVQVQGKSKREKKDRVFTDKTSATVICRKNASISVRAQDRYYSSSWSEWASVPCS
T2 sequence 2: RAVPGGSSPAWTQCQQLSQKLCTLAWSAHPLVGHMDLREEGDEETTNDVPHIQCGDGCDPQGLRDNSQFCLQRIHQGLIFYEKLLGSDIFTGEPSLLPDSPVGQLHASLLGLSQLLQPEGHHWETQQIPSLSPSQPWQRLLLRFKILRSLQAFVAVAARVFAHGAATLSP

T3: IL-12p40 (human, UniProt P29460 23-328)
T3 construct: also called IL-12p40 subunit
T3 sequence: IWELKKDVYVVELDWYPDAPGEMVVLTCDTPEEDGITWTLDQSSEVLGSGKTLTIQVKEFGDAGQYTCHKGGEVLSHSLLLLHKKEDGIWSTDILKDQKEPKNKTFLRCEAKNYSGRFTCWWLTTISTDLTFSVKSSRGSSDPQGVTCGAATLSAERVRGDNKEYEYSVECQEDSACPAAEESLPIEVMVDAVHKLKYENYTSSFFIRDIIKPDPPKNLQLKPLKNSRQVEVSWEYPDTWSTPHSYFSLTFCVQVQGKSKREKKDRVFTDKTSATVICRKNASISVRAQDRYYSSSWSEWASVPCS

T4: IL-23p19 (human, UniProt Q9NPF7 20-189)
T4 construct: also called IL-23p19 subunit
T4 sequence: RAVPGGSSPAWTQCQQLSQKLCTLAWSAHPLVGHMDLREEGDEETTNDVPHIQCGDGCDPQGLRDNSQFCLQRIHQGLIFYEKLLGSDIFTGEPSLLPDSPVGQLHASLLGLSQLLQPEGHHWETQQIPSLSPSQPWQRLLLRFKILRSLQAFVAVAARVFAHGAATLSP


What was measured:
Human IL-23 [1] = biological target: T1, Human IL-23; test: competition ELISA: biotinylated hIL-23 (100 ng/ml) pre-incubated with antibody, binding to coated hIL23R-HIS detected with streptavidin-HRP; blocked partner IL-23R
IL-23 (HEK293E-derived) = biological target: T2, IL-23 (HEK293E-derived); test: SPR (Biacore), antibody supernatant captured on Protein A, IL-23 at 5 ug/ml as analyte
Method: As a result of the humanization processes 22 humanized antibodies were produced and tested for their ability to bind human IL-23 (Table 4). Briefly, 2 mL transfections of the 22 humanized antibodies were screened for antibody expression level and binding activity via SPR. Protein A was immobilized onto FC1 and FC2 (or alternatively FC3 and FC4) of a CM5 research grade sensor chip using amine coupling, giving approximately 3000 RU. FC1 was used as a blank throughout the experiments. The experiments were run in HBS-P buffer (SPR). Antibody-containing cell culture supernatants were diluted in 10× HBS-P buffer at a ratio of 9:1. The diluted antibody was injected over FC2 at a flow rate of 20 μl/min. IL-23 (HEK293E-derived) was passed over the surface of FC1 and FC2 at a concentrations of 5 μg/ml as a kinetic injection with 5 min dissociation time across both
FC. Regeneration of the surface was performed using 10 mM Glycine, pH 1.5. The sensorgram data from FC2 were subtracted from FC1 and a buffer only control. […] The Sequence IDs of the variable heavy and light chains for each antibody are given in the Table 4 along with kd (off-rates) of selected tested antibodies.

Human IL-23 [2] = biological target: T1, Human IL-23; test: SPR (Biacore 3000), antibody captured on Protein A, IL-23 as analyte, 1:1 Langmuir fit
Method: (§1) Using a Biacore 3000, Protein A (Pierce) was immobilized on a CM5 chip using amine coupling chemistry to give 3000 Response Units (RU). Antibody was captured on the surface of the chip in flow cell 2 or 4 with a control surface in flow cell 1 or 3. Human IL-23 was then passed over both flow cells and the response units measured. The surface was then regenerated with 10 mM glycine pH 2.5. For a kinetic run this process was repeated with 5 dilutions of IL-23. Data was double referenced using an injection of running buffer before being fitted using a 1:1 Langmuir equation to determine ka, kd and KD.

Human IL-23 [3] = biological target: T1, Human IL-23; test: SPR (Biacore 3000), antibody captured on Protein A, IL-23 as analyte, 1:1 Langmuir fit; below the limit of sensitivity
Method: as §1

IL-23Fc = biological target: T5, IL-23Fc (human, UniProt Q9NPF7 20-189); test: ELISA, coated human IL-23 (IL-23Fc), biotinylated antibody, streptavidin-HRP, mOD at 450 nm [panel A]
T5 construct: Produced in HEK293E
Method: A NuncMaxisorp 96-well plate was coated with human IL-23 diluted to […] in carbonate coating buffer and overnight incubation at 4° C. The plate was washed (three times in 1×PBS-Tween20 (0.05%)) then blocked for an hour with 1% BSA in PBS at room temperature. Biotinylated antibody was prepared starting from 10 μg/ml and serial half log dilutions were performed then 100 μl was added to the plate and incubated for an hour. The plate was washed and Streptavidin-HRP at 1:2000 dilution was added to all wells and further incubated for an hour. The plate was washed and subsequently developed using TMB (Sigma). The color development reaction was stopped by addition of an equal volume of 1M HCl. Absorbance of the resulting reaction was determined using a plate-based spectrophotometer.

IL-12p40Fc = biological target: T6, IL-12p40Fc (human); test: ELISA, coated human IL-12p40-Fc, biotinylated antibody, streptavidin-HRP, mOD at 450 nm [panel C]
T6 construct: also called human p40-Fc; human IL-12p40-Fc fusion protein

IL-12p40 [4] = biological target: T3, IL-12p40; test: ELISA, coated antigen IL-12p40, mOD at 450 nm; blank = coating antigen omitted [panel 8-22]
IL-23p19 [5] = biological target: T4, IL-23p19; test: ELISA, coated antigen IL-23p19, mOD at 450 nm; blank = coating antigen omitted [panel 8-22]
IL-23p19 [6] = biological target: T4, IL-23p19; test: ELISA, coated antigen IL-23p19, mOD at 450 nm; blank = coating antigen omitted [panel 20-4]
IL-12p40 [7] = biological target: T3, IL-12p40; test: ELISA, coated antigen IL-12p40, mOD at 450 nm; blank = coating antigen omitted [panel 20-4]
IL-23p19 [8] = biological target: T4, IL-23p19; test: ELISA, coated antigen IL-23p19, mOD at 450 nm; blank = coating antigen omitted [panel 6-22]
IL-12p40 [9] = biological target: T3, IL-12p40; test: ELISA, coated antigen IL-12p40, mOD at 450 nm; blank = coating antigen omitted [panel 6-22]

Binder | IC50 (read off the curve) (Human IL-23 [1]) | koff (IL-23 (HEK293E-derived)) | kon (Human IL-23 [2]) | Kd (Human IL-23 [3]) | koff (Human IL-23 [3]) | EC50 (read off the curve) (IL-23Fc) | binding result (IL-12p40Fc) | binding result (IL-12p40 [4]) | Kd (Human IL-23 [2]) | koff (Human IL-23 [2]) | binding result (IL-23p19 [5]) | binding result (IL-23p19 [6]) | binding result (IL-12p40 [7]) | binding result (IL-23p19 [8]) | binding result (IL-12p40 [9])
8-22 (antibody, human IgG1, kappa, V domains shown, Humanized form of E11E7; also called humanized antibody 8-22) VH: QVQLQESGPGLVKPSETLSLTCTVSGFSLISYNVHWIRQPPGKGLEWIGVIWTGGSTDYNPSLKSRVTISRDTSKNQFSLKLSSVTAADTAVYYCARDKYGLFPGYFDYWGQGTLVTVSS VL: DIVMTQSPDSLAVSLGERATINCKPSQSLLSSGNRKNYLAWYQQKPGQPPKLLIYYASTRQSGVPDRFSGSGSGTDFTLTISSLQAEDVAVYYCLQHFNYPWTFGQGTKLEIKR | – | 0.000117 s⁻¹ | 468000 M⁻¹ s⁻¹ | – | – | – | – | no binding (tested: 10 ug/mL) | 0.421 nM | 0.000197 s⁻¹ | no binding (tested: 10 ug/mL) | – | – | – | –
21-4 (antibody, human IgG1, kappa, V domains shown, Humanized form of E11E7; also called humanized antibody 21-4) VH: EVQLQQWGAGLLKPSETLSLTCAVYGFSLISYNVHWIRQPPGKGLEWIGVIWTGGSTDYNSVLKSRVTISRDTSKNQFSLKLSSVTAADTAVYYCARDKYGLFPGYFDYWGQGTLVTVSS VL: EIVLTQSPATLSLSPGERATLSCKPSQSLLSSGNRKNYLAWYQQKPGQAPRLLIYYASTRQSGIPDRFSGSGSGTDFTLTISRLEPEDFAVYYCLQHFNYPWTFGGGTKVEIKR | – | 0.000191 s⁻¹ | 521000 M⁻¹ s⁻¹ | – | – | – | – | – | 0.388 nM | 0.000202 s⁻¹ | – | – | – | – | –
1-4 (antibody, human IgG1, kappa, V domains shown, Humanized form of E11E7; also called humanized antibody 1-4) VH: EVQLQQWGAGLLKPSETLSLTCAVYGGSFSSYNVHWIRQPPGKGLEWIGVIWTGGSTDYNSVLKSRVTISRDTSKNQFSLKLSSVTAADTAVYYCARDKYGLFPGYFDYWGQGTLVTVSS VL: EIVLTQSPATLSLSPGERATLSCKPSQSLLSSGNRKNYLAWYQQKPGQAPRLLIYYASTRQSGIPDRFSGSGSGTDFTLTISRLEPEDFAVYYCLQHFNYPWTFGGGTKVEIKR | – | 0.000616 s⁻¹ | 348000 M⁻¹ s⁻¹ | – | – | – | – | – | 2.11 nM | 0.000733 s⁻¹ | – | – | – | – | –

Next, values leading:

IC50 (read off the curve) (Human IL-23 [1]) | koff (IL-23 (HEK293E-derived)) | kon (Human IL-23 [2]) | Kd (Human IL-23 [3]) | koff (Human IL-23 [3]) | EC50 (read off the curve) (IL-23Fc) | binding result (IL-12p40Fc) | binding result (IL-12p40 [4]) | Kd (Human IL-23 [2]) | koff (Human IL-23 [2]) | binding result (IL-23p19 [5]) | binding result (IL-23p19 [6]) | binding result (IL-12p40 [7]) | binding result (IL-23p19 [8]) | binding result (IL-12p40 [9]) | Binder
~0.04 µg/mL | 5.98e-05 s⁻¹ | 542000 M⁻¹ s⁻¹ | < 0.1 nM | < 1e-05 s⁻¹ | ~0.09 µg/mL | no binding (tested: 10 ug/ml) | – | – | – | – | – | – | – | – | E11E7Chimera (antibody, human IgG1, kappa, V domains shown, Rat E11E7 variable regions on human constant regions; also called E11E7 chimeric antibody) VH: QVQLKESGPGLVQPSQTLSLTCTVSGFSLISYNVHWVRQPRGKGLEWMGVIWTGGSTDYNSVLKSRLSISRDTSKSQVFLKMHSLQTEDIGTYYCARDKYGLFPGYFDYWGQGVMVTVSS VL: DIVMTQSPFSLAVSEGEMVTINCKPSQSLLSSGNRKNYLAWYQQKPGQSPKLLIYYASTRQSGVPDRFIGSGSGTDFTLTISDVQAEDLADYYCLQHFNYPWTFGGGTKLELKR
– | 0.000231 s⁻¹ | 429000 M⁻¹ s⁻¹ | – | – | – | – | – | 0.47 nM | 0.000202 s⁻¹ | – | no binding (tested: 10 ug/mL) | no binding (tested: 10 ug/mL) | – | – | 20-4 (antibody, human IgG1, kappa, V domains shown, Humanized form of E11E7; also called humanized antibody 20-4) VH: EVQLQQWGAGLLKPSETLSLTCAVYGFSLISYNVHWIRQPPGKGLEWIGVIWTGGSTDYNSVLKSRVTISVDTSKNQFSLKLSSVTAADTAVYYCARDKYGLFPGYFDYWGQGTLVTVSS VL: EIVLTQSPATLSLSPGERATLSCKPSQSLLSSGNRKNYLAWYQQKPGQAPRLLIYYASTRQSGIPDRFSGSGSGTDFTLTISRLEPEDFAVYYCLQHFNYPWTFGGGTKVEIKR
– | 0.000241 s⁻¹ | 465000 M⁻¹ s⁻¹ | – | – | – | – | – | 0.86 nM | 0.0004 s⁻¹ | – | – | – | no binding (tested: 10 ug/mL) | no binding (tested: 10 ug/mL) | 6-22 (antibody, human IgG1, kappa, V domains shown, Humanized form of E11E7; also called humanized antibody 6-22) VH: QVQLQESGPGLVKPSETLSLTCTVSGFSISSYNVHWIRQPPGKGLEWIGVIWTGGSTDYNPSLKSRVTISRDTSKNQFSLKLSSVTAADTAVYYCARDKYGLFPGYFDYWGQGTLVTVSS VL: DIVMTQSPDSLAVSLGERATINCKPSQSLLSSGNRKNYLAWYQQKPGQPPKLLIYYASTRQSGVPDRFSGSGSGTDFTLTISSLQAEDVAVYYCLQHFNYPWTFGQGTKLEIKR
